For one substance, ATPase activity of purified sfLptB2FGC compared with sfLptB2FG under the same conditions results are on record in PMC6744409.

This test addresses LptB2FG from Shigella flexneri (Shigella flexneri) (UniProt P0A9V4).

“LptC from Shigella flexneri (subunit of sfLptB2FGC) (from UniProt P0ADW2 1-191) (natural protein)” displayed an ATPase activity of purified sfLptB2FGC compared with sfLptB2FG under the same conditions of 50 % less.
